Source: patent publication US20150031755

Legend:
[1] = target: T1, human alpha-CGRP (L-peptide) (Homo sapiens) (UniProt P06881); assay: SPR; conditions: L-RNA; 37 C
T1 sequence: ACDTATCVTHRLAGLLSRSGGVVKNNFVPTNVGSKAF

[2] = test system: T2, rat amylin (L-peptide) (Rattus norvegicus); assay: cell_activity; conditions: L-RNA, L-dC at 41, 5'-40 kDa PEG; cAMP inhibition, MCF-7 cells; p375 prints human amylin for this value but p377 indicates rat amylin
T2 sequence: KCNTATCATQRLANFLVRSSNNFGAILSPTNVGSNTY

Row | Sequence | Kd [1] [nM] | IC50 [2] [nM]
1 | CGUGCUGUCGGAGACUACUCGUCGAGUAGAAAUAGGUCCCCUCCCACG [212-G1-001 (L)] | 5.12 | 
2 | CCGUGCUGUCGGAGACUACUCGUCGAGUAGAAAUAGGUCCCCUCCCACGG [226-F2-001 (L)] | 2.62 | 
3 | CCGUGCUGUCGGAGACUACUCGUCGAGUAGAAAUAGGUCCCCUCCCACGG [NOX-L41 (226-F2-001-D41-5'-40kDa-PEG)] |  | 283
